Data published in the supplement of paper PMC9732359.
± gives the uncertainty stated by the source.

Assay: protein stability index of a GFP-peptide fusion (yeast GPS) (PSI 1-4); higher = more stable; sorted into four equal gates, so the index is relative within each strain
Conditions: san1∆
How it was run: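 The protein stability index of a peptide was calculated by multiplying its read frequency in each gate by that gate's number and adding the products. The peptides were tiled 17-residue stretches of yeast proteins, fused downstream of GFP on a Cherry-expressing plasmid and carried in yeast as a pooled library. Mid-log cultures in leucine-free medium were sorted into four equal gates by GFP/Cherry ratio, and each gate's plasmids were PCR-amplified and Illumina-sequenced.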

Sequence	protein stability index
STPENVPRLFDLVKPKN [SMC4]	2.65 ± 0.12
STYKHDRGIANIRNNIE [SRB4]	2.95 ± 0.14
SVAEKEEIRSQIDHFKS [SWI3]	2.8 ± 0.07
SVDPQSSSTQNVFVILM [DIS3]	2.7 ± 0.075
SVINVSAQRDRRYRKRN [RPS17B]	3.23 ± 0.24
SVLKDSDDKTRQLSPHT [PRE1]	2.43 ± 0.099
SVMPPNEVYSAYVVNDT [DLS1]	1.89 ± 0.28
SVQTFGKKKSATAVAHV [RPS16A]	2.19 ± 0.11
SVRIDGRKVLQKVQGES [SIR4]	2.98 ± 0.066
SVRTAVFSALKNLISRI [ECM29]	2.03 ± 0.064
SVTETESISQTPISNEQ [SRP68]	2.82 ± 0.063
SWNESEDTLSGYDPIVS [PRP28]	3.19 ± 0.076
SYFSPINSSNEALVQAF [YCG1]	2.69 ± 0.072
SYNWGAKAKRRHTTGTG [RPL37A]	3.13 ± 0.078
TAAEKKERLTKEAAAIA [RPL8B]	1.91 ± 0.11
TAFALGIACAGKGLQSA [RPN2]	1.3 ± 0.17
TAKETKMLMNLHKEQWQ [RPN11]	3.5 ± 0.036
TANAKHTSSNSREIAQP [SMB1]	3.19 ± 0.07
TATLAWGVNLPAHTVII [BRR2]	1.81 ± 0.089
TATYNDNMSEEQWLRQF [SNF2]	3.27 ± 0.1
TAVGKAAVVKTSSRQTV [RPT5]	3.28 ± 0.074
TCSSDQHIKVFKLDKDT [YGL100W/SEH1]	3.46 ± 0.087
TCVSMAPIQLKIDLLSG [RGR1]	1.87 ± 0.081
TDAHTPLARNYIKSMDL [RPR2]	2.68 ± 0.041
TDCKFIRVSGAELVQKY [RPT6]	3.16 ± 0.15

Sequence	protein stability index
TDDYFEELRDLYQTYHV [FAS1]	3.33 ± 0.15
TDIEEGMRVGVDRSKYN [RPT1]	3.07 ± 0.1
TDLESKSRMINFLDAPG [SNU114]	2.71 ± 0.067
TDLNQDSAAIIAATGLN [GRR1]	1.43 ± 0.22
TDQLIQNIETRQLANLI [NUT1]	2.94 ± 0.13
TDSRTGQSTILVGSEIY [CDC53]	2.94 ± 0.051
TDWDPQFNAITGLNGSG [SMC2]	2.3 ± 0.19
TDYFLPKNYSLHGLRSF [YJL039C/NUP192]	2.12 ± 0.055
TEAEETSIHSTISILAA [RRP43]	1.77 ± 0.068
TEAVTQLIGSNIELHSL [PUP1]	3.44 ± 0.11
TEENIKGETNSEISIID [RRP45]	3.3 ± 0.055
TEGEPKKKRGFLGLFGR [SRP68]	2.92 ± 0.068
TEGPSDKKLNLNLPLQF [SNF12]	3.31 ± 0.091
TEKNREIYKQLNDRQEE [YIL149C/MLP2]	3.57 ± 0.042
TELKKITDKTIKAFMDS [IRR1]	2.46 ± 0.072
TELSNKETTIEKLSSEI [YIL149C/MLP2]	3.21 ± 0.072
TEQFCATLNYIDKNHGF [SRB7]	3.2 ± 0.057
TEQTKSKNPLSLTEATK [YLR335W/NUP2]	2.91 ± 0.062
TESIALSSMRFKPSQEP [RRI1]	3.3 ± 0.076
TETKRLVVIRFGRKNDR [DIB1]	2.03 ± 0.12
TFEFINIAFDAHMSIGC [YML031W/NDC1]	1.19 ± 0.13
TFKSVSKYGMLLLRCDD [POP3]	1.96 ± 0.12
TFLPSYMKFSNKYLELC [RRI2]	2.37 ± 0.073
TFSGALGKQSSSLLSRL [FAS2]	3.22 ± 0.065
TFTIQLLKLTKVFIRES [YML103C/NUP188]	2.46 ± 0.086

Sequence	protein stability index
TFVYILEKLIFDMTNHY [SRB8]	1.69 ± 0.1
TGGGLFGSKPTGATSLF [YGL172W/NUP49]	3.56 ± 0.045
TGGQTIDNGTGRTGNGN [MED6]	3.26 ± 0.079
TGKERSKKRKLNSLTNL [SNM1]	2.89 ± 0.075
TGKVSEFISIYSNSHQM [RET1]	3.03 ± 0.11
TGMEPGKTSFFQALGVP [RPP0]	3.23 ± 0.13
TGNIKHEDLVNSIESKN [COR1]	3.2 ± 0.075
TGRLFQVEYALEAIKQG [PRE5]	3.16 ± 0.17
TGVSVEAVDDVFQAKMM [RPN11]	2.92 ± 0.082
TGWHVDQAIVTETKRLV [DIB1]	2.08 ± 0.25
THLHEALDIVCSDFVKI [NUT1]	2.15 ± 0.11
THNFKLSGVSNSMDMVD [RGR1]	2.93 ± 0.06
TIELAGGGYFSAAGMTA [FAS1]	1.9 ± 0.16
TIFSVMVEWLESRSFSP [PRP8]	2.15 ± 0.15
TIHAKRKIVFRCSECIK [RPN4]	2.15 ± 0.11
TIHRSFTICLNDRNPRL [CSN12]	2.72 ± 0.069
TILSSKLSNIWMQRQLI [SRB2]	2.76 ± 0.1
TINGKVNGRTKSNTIPV [GAL11]	3.02 ± 0.099
TISKTVSSTIPRETIPF [FAS2]	2.75 ± 0.11
TISSKPDILATDLIREK [YCS4]	3.4 ± 0.26
TITTILILGLNTSIAQF [YML103C/NUP188]	2.32 ± 0.076
TIYNLQHHVTDADKLSF [YML031W/NDC1]	1.98 ± 0.061
TKAIQGCSKICDLSSKF [YCS4]	3.37 ± 0.037
TKEYLVQNLRSWETKLK [CSN9]	3.1 ± 0.092
TKHPSLKTLTHKQIHTT [POP7]	2.21 ± 0.05

Same assay, conditions: ubr1∆

Sequence	protein stability index
STPENVPRLFDLVKPKN [SMC4]	2.81 ± 0.053
STPGGGSVFNMNGNTNA [YOR098C/NUP1]	3.15 ± 0.15
STYKHDRGIANIRNNIE [SRB4]	3.49 ± 0.13
SVAEKEEIRSQIDHFKS [SWI3]	2.65 ± 0.055
SVDPQSSSTQNVFVILM [DIS3]	2.92 ± 0.099
SVKEDVKNNQELDQEYR [SMC4]	3.36 ± 0.14
SVLKDSDDKTRQLSPHT [PRE1]	2.52 ± 0.067
SVMPPNEVYSAYVVNDT [DLS1]	3.04 ± 0.082
SVQTFGKKKSATAVAHV [RPS16A]	2.1 ± 0.069
SVRIDGRKVLQKVQGES [SIR4]	2.88 ± 0.064
SVRTAVFSALKNLISRI [ECM29]	2.53 ± 0.035
SVTETESISQTPISNEQ [SRP68]	2.96 ± 0.082
SWNESEDTLSGYDPIVS [PRP28]	3.44 ± 0.06
SYFSPINSSNEALVQAF [YCG1]	2.25 ± 0.042
SYNWGAKAKRRHTTGTG [RPL37A]	3.34 ± 0.043
TAAEKKERLTKEAAAIA [RPL8B]	2.33 ± 0.05
TAFALGIACAGKGLQSA [RPN2]	1.19 ± 0.076
TAKETKMLMNLHKEQWQ [RPN11]	3.42 ± 0.068
TANAKHTSSNSREIAQP [SMB1]	3.33 ± 0.17
TATLAWGVNLPAHTVII [BRR2]	1.79 ± 0.064
TATYNDNMSEEQWLRQF [SNF2]	3.5 ± 0.089
TAVGKAAVVKTSSRQTV [RPT5]	3.15 ± 0.052
TCSSDQHIKVFKLDKDT [YGL100W/SEH1]	3.43 ± 0.097
TCVSMAPIQLKIDLLSG [RGR1]	2 ± 0.038
TDAHTPLARNYIKSMDL [RPR2]	2.86 ± 0.032
TDCKFIRVSGAELVQKY [RPT6]	2.93 ± 0.11

Sequence	protein stability index
TDDYFEELRDLYQTYHV [FAS1]	3.37 ± 0.11
TDIEEGMRVGVDRSKYN [RPT1]	3.13 ± 0.15
TDLESKSRMINFLDAPG [SNU114]	2.8 ± 0.047
TDLNQDSAAIIAATGLN [GRR1]	1.55 ± 0.097
TDQLIQNIETRQLANLI [NUT1]	3.01 ± 0.051
TDSRTGQSTILVGSEIY [CDC53]	2.87 ± 0.065
TDYFLPKNYSLHGLRSF [YJL039C/NUP192]	2.11 ± 0.064
TEAEETSIHSTISILAA [RRP43]	1.37 ± 0.035
TEAVTQLIGSNIELHSL [PUP1]	2.96 ± 0.13
TEENIKGETNSEISIID [RRP45]	3.22 ± 0.053
TEEVEALLQRLKTNGKQ [MTW1]	3.23 ± 0.21
TEGEPKKKRGFLGLFGR [SRP68]	3.01 ± 0.06
TEGPSDKKLNLNLPLQF [SNF12]	2.87 ± 0.11
TEKNREIYKQLNDRQEE [YIL149C/MLP2]	3.12 ± 0.057
TELKKITDKTIKAFMDS [IRR1]	2.52 ± 0.079
TELSNKETTIEKLSSEI [YIL149C/MLP2]	3.13 ± 0.051
TEQFCATLNYIDKNHGF [SRB7]	2.47 ± 0.052
TEQTKSKNPLSLTEATK [YLR335W/NUP2]	3.14 ± 0.051
TESIALSSMRFKPSQEP [RRI1]	2.86 ± 0.057
TETKRLVVIRFGRKNDR [DIB1]	2.89 ± 0.065
TFEFINIAFDAHMSIGC [YML031W/NDC1]	1.33 ± 0.062
TFKSVSKYGMLLLRCDD [POP3]	1.72 ± 0.068
TFLPSYMKFSNKYLELC [RRI2]	2.37 ± 0.04
TFSGALGKQSSSLLSRL [FAS2]	2.93 ± 0.073
TFTIQLLKLTKVFIRES [YML103C/NUP188]	2.69 ± 0.12
TFVERLPNETINDRNDR [DIS3]	2.28 ± 0.11

Sequence	protein stability index
TFVYILEKLIFDMTNHY [SRB8]	1.69 ± 0.039
TGGGLFGSKPTGATSLF [YGL172W/NUP49]	3.62 ± 0.074
TGGQTIDNGTGRTGNGN [MED6]	2.72 ± 0.063
TGKERSKKRKLNSLTNL [SNM1]	2.67 ± 0.13
TGKVSEFISIYSNSHQM [RET1]	2.72 ± 0.073
TGMEPGKTSFFQALGVP [RPP0]	3.17 ± 0.073
TGNIKHEDLVNSIESKN [COR1]	2.96 ± 0.087
TGRLFQVEYALEAIKQG [PRE5]	2.26 ± 0.12
TGVSVEAVDDVFQAKMM [RPN11]	2.87 ± 0.13
TGWHVDQAIVTETKRLV [DIB1]	1.9 ± 0.077
THLHEALDIVCSDFVKI [NUT1]	1.92 ± 0.078
THNFKLSGVSNSMDMVD [RGR1]	3.08 ± 0.062
TIELAGGGYFSAAGMTA [FAS1]	2.84 ± 0.14
TIFSVMVEWLESRSFSP [PRP8]	1.88 ± 0.059
TIHAKRKIVFRCSECIK [RPN4]	2.59 ± 0.056
TIHRSFTICLNDRNPRL [CSN12]	2.65 ± 0.043
TILSSKLSNIWMQRQLI [SRB2]	2.82 ± 0.051
TINGKVNGRTKSNTIPV [GAL11]	3.19 ± 0.097
TISKTVSSTIPRETIPF [FAS2]	2.71 ± 0.052
TISSKPDILATDLIREK [YCS4]	3.09 ± 0.066
TITTILILGLNTSIAQF [YML103C/NUP188]	2.28 ± 0.04
TIYNLQHHVTDADKLSF [YML031W/NDC1]	2.06 ± 0.04
TKAIQGCSKICDLSSKF [YCS4]	3.06 ± 0.098
TKEYLVQNLRSWETKLK [CSN9]	2.93 ± 0.13
TKHPSLKTLTHKQIHTT [POP7]	2.48 ± 0.04
